Assay results: patent US20240376151A1, “STAPLED PEPTIDES AND METHODS THEREOF” (FOG PHARMACEUTICALS, INC., priority 2022, published 2024)
Numbered stars: 1 amine (or outer) side, 2 acyl side, 3 side chain; on linkers, the order of the positions; unused ones are H or OH. Bridge positions count the residues as written; N and C are the ends. Ends that are not written are not given here. Phenylene(1,4-NHCOCH2)2 = O=C(C[*:1])Nc1ccc(NC(=O)C[*:2])cc1; 8‑residue Gly‑rich linker = not defined here

What was measured:
[1] = target: VHL-ELOBC (human), P40337; experiment: phage display screen, NGS; column head 300 nM (row is one cell short of the head, alignment unsure)
VHL-ELOBC (human), P40337, sequence (P40337 54-213 limits assumed, chain 1 of 3): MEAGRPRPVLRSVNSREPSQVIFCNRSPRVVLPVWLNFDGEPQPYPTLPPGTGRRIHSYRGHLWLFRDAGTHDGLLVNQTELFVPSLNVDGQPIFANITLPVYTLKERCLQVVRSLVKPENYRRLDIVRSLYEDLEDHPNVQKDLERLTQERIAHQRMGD
VHL-ELOBC (human), P40337, sequence (Q15370 1-104 limits assumed, chain 2 of 3, further chain): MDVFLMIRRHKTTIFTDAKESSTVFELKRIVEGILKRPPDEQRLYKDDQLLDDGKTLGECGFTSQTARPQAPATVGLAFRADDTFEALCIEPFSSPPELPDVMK
VHL-ELOBC (human), P40337, sequence (Q15369 17-112 limits assumed, chain 3 of 3, further chain): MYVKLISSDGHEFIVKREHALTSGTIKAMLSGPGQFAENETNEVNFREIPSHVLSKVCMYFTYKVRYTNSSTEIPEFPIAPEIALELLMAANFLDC

[2] = target: T1, CUL1 N-terminal domain (residues 15-410, V367R/L371D) (human), Q13616; experiment: phage display screen, bead-bound target, spike-in-normalized NGS; target 10 nM
[3] = target: T1, CUL1 N-terminal domain (residues …); experiment: phage display screen, bead-bound target, spike-in-normalized NGS; target 30 nM
[4] = target: T1, CUL1 N-terminal domain (residues …); experiment: phage display screen, bead-bound target, spike-in-normalized NGS; target 100 nM
[5] = target: T1, CUL1 N-terminal domain (residues …); experiment: phage display screen, bead-bound target, spike-in-normalized NGS; target 300 nM
[6] = target: T1, CUL1 N-terminal domain (residues …); experiment: phage display screen, bead-bound target, spike-in-normalized NGS; target 1000 nM
[7] = target: T1, CUL1 N-terminal domain (residues …); experiment: phage display screen, bead-bound target, spike-in-normalized NGS; target 1000 nM (second column)
[8] = target: RNF31 PUB domain protein (residues 1-179), biotinylated (Homo sapiens (Human)) (UniProt Q96EP0); experiment: phage display screen on bead-immobilized RNF31 PUB, NGS
RNF31 PUB domain protein (residues 1-179), biotinylated (Homo sapiens (Human)), sequence (Q96EP0 1-179): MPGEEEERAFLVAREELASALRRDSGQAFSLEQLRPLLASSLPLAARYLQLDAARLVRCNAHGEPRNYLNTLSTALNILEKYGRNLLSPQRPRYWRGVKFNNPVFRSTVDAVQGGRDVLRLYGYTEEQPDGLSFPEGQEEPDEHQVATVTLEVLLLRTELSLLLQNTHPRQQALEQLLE

[9] = target: MDM2 p53-binding domain + beta-catenin Armadillo domain (the two proteins bridged in the ternary complex) (human) (UniProt Q00987); experiment: direct FP, ternary complex of β-catenin (Armadillo domain) and MDM2 (p53-binding domain)
MDM2 p53-binding domain + beta-catenin Armadillo domain (the two proteins bridged in the ternary complex) (human), sequence (Q00987 17-111, chain 1 of 2): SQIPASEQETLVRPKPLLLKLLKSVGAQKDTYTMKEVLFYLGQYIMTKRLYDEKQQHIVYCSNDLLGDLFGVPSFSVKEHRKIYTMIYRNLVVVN
MDM2 p53-binding domain + beta-catenin Armadillo domain (the two proteins bridged in the ternary complex) (human), sequence (chain, as listed by the source, chain 2 of 2): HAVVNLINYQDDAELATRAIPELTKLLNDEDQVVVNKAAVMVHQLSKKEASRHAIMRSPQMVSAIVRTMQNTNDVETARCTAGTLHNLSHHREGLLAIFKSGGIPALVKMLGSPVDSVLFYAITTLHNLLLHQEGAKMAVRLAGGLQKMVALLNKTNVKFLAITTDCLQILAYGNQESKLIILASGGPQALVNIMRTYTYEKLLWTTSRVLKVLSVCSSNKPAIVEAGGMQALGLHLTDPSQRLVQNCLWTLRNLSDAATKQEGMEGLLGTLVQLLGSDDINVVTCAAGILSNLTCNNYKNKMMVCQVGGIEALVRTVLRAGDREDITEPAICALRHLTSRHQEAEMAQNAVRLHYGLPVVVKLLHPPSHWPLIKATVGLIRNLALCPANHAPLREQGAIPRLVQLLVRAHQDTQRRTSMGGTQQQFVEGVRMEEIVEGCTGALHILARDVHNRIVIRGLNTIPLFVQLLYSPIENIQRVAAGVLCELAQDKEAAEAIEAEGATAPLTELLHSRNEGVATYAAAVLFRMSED

[10] = target: human PD-L1 (residues 18-239) with C-terminal human IgG Fc-Avi tag (human), Q9NZQ7; experiment: SPR
human PD-L1 (residues 18-239) with C-terminal human IgG Fc-Avi tag (human), Q9NZQ7, sequence (Q9NZQ7 18-239): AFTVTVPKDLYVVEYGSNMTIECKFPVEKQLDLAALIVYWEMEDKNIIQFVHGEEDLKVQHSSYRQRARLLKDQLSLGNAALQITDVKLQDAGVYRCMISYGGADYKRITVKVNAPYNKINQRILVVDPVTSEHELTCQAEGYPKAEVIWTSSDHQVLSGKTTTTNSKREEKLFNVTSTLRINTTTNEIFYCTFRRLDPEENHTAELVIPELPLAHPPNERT

## DPAWWHCVDAALQCDYY (modifications not checked)
[1]
  phage count (normalised phage counts): 40

## DPAVMECDWAATICDIF (modifications not checked) [phage-displayed Helicon …]
[2]
  normalized phage count (normalized counts): 0
[3]
  normalized phage count (normalized counts): 2
[4]
  normalized phage count (normalized counts): 154
[5]
  normalized phage count (normalized counts): 402
[6]
  normalized phage count (normalized counts): 477
[7]
  normalized phage count (normalized counts): 419

## DPADWTCVLAAHNCLYT-{8‑residue Gly‑rich linker-M13 pIII} (peptide, not shown: large carriers, linker 7-14 via Phenylene(1,4-NHCOCH2)2 (inferred); reading uncertain)
[8]
  normalized phage count at Target Concentration 10 (normalized phage counts): 0
  normalized phage count at Target Concentration 30 (normalized phage counts): 0
  normalized phage count at Target Concentration 100 (normalized phage counts): 0
  normalized phage count at Target Concentration 300 (normalized phage counts): 1
  normalized phage count at Target Concentration 1000 (normalized phage counts): 3
  normalized phage count at Target Concentration 1000 (second column) (normalized phage counts): 9

## DPAWWHCVAAATQCDQR (modifications not checked)
[1]
  phage count (normalised phage counts): 79

## DPAWYACVDAAYFCDYQ (modifications not checked)
[1]
  phage count (normalised phage counts): 35

## DPAHILCEMAARNCLYN-{8‑residue Gly‑rich linker-M13 pIII} (peptide, not shown: large carriers, linker 7-14 via Phenylene(1,4-NHCOCH2)2 (inferred); reading uncertain)
[8]
  normalized phage count at Target Concentration 10 (normalized phage counts): 3
  normalized phage count at Target Concentration 30 (normalized phage counts): 1
  normalized phage count at Target Concentration 100 (normalized phage counts): 1
  normalized phage count at Target Concentration 300 (normalized phage counts): 1
  normalized phage count at Target Concentration 1000 (normalized phage counts): 10
  normalized phage count at Target Concentration 1000 (second column) (normalized phage counts): 2

B1: H329 (peptide)
peptide: Ac-PMEQQAICFQAAWMCLADDWT-NH2
modifications: bridge 8-15; not fully specified (bridges); printed as Ac-PMEQQAICFQAAWMCLADDWT-NH2
[9]
  EC50: 0.014 µM

## DPAAADCQWAAFLCRVY (modifications not checked) [FP30790]
[10]
  Kd: 10 µM
